pKd: −log10 of the molar value. “And” between values parts separate entries of the source, which are not always exact repeats. Equal entries are not always repeated. Where two headings read alike, the source gives them in different places. One block for each substance: values may come before it.
How the values were obtained:
[1] = biological target: exenatide (UniProt P26349); assay: dynamic light scattering; 115 µM Exen; 25 °C; 25 mM Tris-HCl, 140 mM NaCl, 4.9 mM KCl, […] CaCl2, 1 mM MgCl2, pH 7.4; degree of multimerization MWRh/MWm
[2] = biological target: exenatide (UniProt P26349); assay: dynamic light scattering; 29 µM Exen; 25 °C; 25 mM Tris-HCl, 140 mM NaCl, 4.9 mM KCl, […] CaCl2, 1 mM MgCl2, pH 7.4; degree of multimerization MWRh/MWm
[3] = biological target: amyloid-β peptide, residues 1-42 (human) (UniProt P05067)
[4] = biological target: amyloid-β peptide, residues 1-40 (human) (UniProt P05067)
[5] = biological target: exenatide (UniProt P26349); assay: dynamic light scattering; […] µM Exen; 25 °C; 25 mM Tris-HCl, 140 mM NaCl, 4.9 mM KCl, […] CaCl2, 1 mM MgCl2, pH 7.4; degree of multimerization MWRh/MWm
[6] = biological target: amyloid-β peptide, residues 1-42 (human) (UniProt P05067); assay: BLI; Aβ40/Aβ42 immobilised on amine-reactive sensors (EDAC/sulfo-NHS), washed with 0.5% SDS; analyte 4–15 µM Exen; 25 °C; 20 mM Tris-HCl, 140 mM NaCl, 4.9 mM KCl, […] CaCl2, 1 mM MgCl2, pH 7.4; curves not fitted, KD estimated as the level of the analyte concentrations; apparent
[7] = biological target: amyloid-β peptide, residues 1-40 (human) (UniProt P05067); assay: as above
[8] = biological target: exenatide (UniProt P26349); assay: dynamic light scattering; 234 µM Exen; 25 °C; 25 mM Tris-HCl, 140 mM NaCl, 4.9 mM KCl, […] CaCl2, 1 mM MgCl2, pH 7.4; degree of multimerization MWRh/MWm
[9] = biological target: liraglutide (human); assay: dynamic light scattering; 6 µM Lira; 25 °C; 25 mM Tris-HCl, 140 mM NaCl, 4.9 mM KCl, […] CaCl2, 1 mM MgCl2, pH 7.4; degree of multimerization MWRh/MWm
[10] = biological target: liraglutide (human); assay: dynamic light scattering; 52 µM Lira; 25 °C; 25 mM Tris-HCl, 140 mM NaCl, 4.9 mM KCl, […] CaCl2, 1 mM MgCl2, pH 7.4; degree of multimerization MWRh/MWm
[11] = biological target: liraglutide (human); assay: dynamic light scattering; 13 µM Lira; 25 °C; 25 mM Tris-HCl, 140 mM NaCl, 4.9 mM KCl, […] CaCl2, 1 mM MgCl2, pH 7.4; degree of multimerization MWRh/MWm
[12] = biological target: amyloid-β peptide, residues 1-42 (human) (UniProt P05067); assay: BLI; Aβ40/Aβ42 immobilised on amine-reactive sensors (EDAC/sulfo-NHS), washed with 0.5% SDS; analyte 10 µM Lira; 25 °C; 20 mM Tris-HCl, 140 mM NaCl, 4.9 mM KCl, […] CaCl2, 1 mM MgCl2, pH 7.4; single binding site model (1), fitted for each analyte concentration; apparent constants
[13] = biological target: amyloid-β peptide, residues 1-40 (human) (UniProt P05067); assay: as above
[14] = biological target: amyloid-β peptide, residues 1-42 (human) (UniProt P05067); assay: BLI; Aβ40/Aβ42 immobilised on amine-reactive sensors (EDAC/sulfo-NHS), washed with 0.5% SDS; analyte 5 µM Lira; 25 °C; 20 mM Tris-HCl, 140 mM NaCl, 4.9 mM KCl, […] CaCl2, 1 mM MgCl2, pH 7.4; single binding site model (1), fitted for each analyte concentration; apparent constants
[15] = biological target: amyloid-β peptide, residues 1-40 (human) (UniProt P05067); assay: as above
[16] = biological target: amyloid-β peptide, residues 1-42 (human) (UniProt P05067); assay: SPR
[17] = biological target: amyloid-β peptide, residues 1-40 (human) (UniProt P05067); assay: SPR
[18] = biological target: amyloid-β peptide, residues 1-42 (human) (UniProt P05067); assay: BLI; Aβ40/Aβ42 immobilised on amine-reactive sensors (EDAC/sulfo-NHS), washed with 0.5% SDS; analyte 20 µM Lira; 25 °C; 20 mM Tris-HCl, 140 mM NaCl, 4.9 mM KCl, […] CaCl2, 1 mM MgCl2, pH 7.4; single binding site model (1), fitted for each analyte concentration; apparent constants
[19] = biological target: amyloid-β peptide, residues 1-40 (human) (UniProt P05067); assay: as above
[20] = biological target: amyloid-β peptide, residues 1-42 (human) (UniProt P05067); assay: BLI; Aβ40/Aβ42 immobilised on amine-reactive sensors (EDAC/sulfo-NHS), washed with 0.5% SDS; analyte Sema, 17 µM on Aβ40 and 38 µM on Aβ42; 25 °C; 20 mM HEPES-KOH, 140 mM NaCl, 4.9 mM KCl, […] CaCl2, 1 mM MgCl2, pH 7.4; heterogeneous ligand scheme (2)
[21] = biological target: amyloid-β peptide, residues 1-40 (human) (UniProt P05067); assay: as above
[22] = biological target: semaglutide (human); assay: dynamic light scattering; 12 µM Sema; 25 °C; 25 mM Tris-HCl, 140 mM NaCl, 4.9 mM KCl, […] CaCl2, 1 mM MgCl2, pH 7.4; degree of multimerization MWRh/MWm

Substance: exenatide (from UniProt P26349 48-87) (peptide)
stoichiometry N [1]: 6.4
stoichiometry N [2]: 2.1
pKd [3]: 6.00
pKd [4]: 6.00
stoichiometry N [5]: 1.6
pKd [6]: 5.40 and 4.82
pKd [7]: 5.40 and 4.82
stoichiometry N [8]: 5.88

stoichiometry N [9]: 8.2
stoichiometry N [10]: 16.3
stoichiometry N [11]: 6.5
pKd [12]: 7.22
koff [12]: 0.000482 s⁻¹
kon [12]: 8000 M⁻¹ s⁻¹
pKd [13]: 7.32
koff [13]: 0.000346 s⁻¹
kon [13]: 7300 M⁻¹ s⁻¹
pKd [14]: 7.35
koff [14]: 0.00054 s⁻¹
kon [14]: 12100 M⁻¹ s⁻¹
pKd [15]: 7.38
koff [15]: 0.000556 s⁻¹
kon [15]: 13400 M⁻¹ s⁻¹
KD1 (heterogeneous ligand model, site 1) [16]: 520 nM
KD2 (heterogeneous ligand model, site 2) [16]: 5.6 µM
ka1 (heterogeneous ligand model, site 1) [16]: 2240 M⁻¹ s⁻¹
ka2 (heterogeneous ligand model, site 2) [16]: 2900 M⁻¹ s⁻¹
kd1 (heterogeneous ligand model, site 1) [16]: 0.00114 s⁻¹
kd2 (heterogeneous ligand model, site 2) [16]: 0.0164 s⁻¹
KD1 (heterogeneous ligand model, site 1) [17]: 950 nM
KD2 (heterogeneous ligand model, site 2) [17]: 9.1 µM
ka1 (heterogeneous ligand model, site 1) [17]: 1440 M⁻¹ s⁻¹
ka2 (heterogeneous ligand model, site 2) [17]: 1900 M⁻¹ s⁻¹
kd1 (heterogeneous ligand model, site 1) [17]: 0.00119 s⁻¹
kd2 (heterogeneous ligand model, site 2) [17]: 0.017 s⁻¹
pKd [18]: 6.96
koff [18]: 0.0006 s⁻¹
kon [18]: 5700 M⁻¹ s⁻¹
pKd [19]: 6.96
koff [19]: 0.0009 s⁻¹
kon [19]: 8400 M⁻¹ s⁻¹
Substance: liraglutide (peptide)

KD1 (heterogeneous ligand scheme, site 1) [20]: 11 µM
KD2 (heterogeneous ligand scheme, site 2) [20]: 22 µM
ka1 (heterogeneous ligand scheme, site 1) [20]: 582 M⁻¹ s⁻¹
ka2 (heterogeneous ligand scheme, site 2) [20]: 6100 M⁻¹ s⁻¹
kd1 (heterogeneous ligand scheme, site 1) [20]: 0.0064 s⁻¹
kd2 (heterogeneous ligand scheme, site 2) [20]: 0.134 s⁻¹
KD1 (heterogeneous ligand scheme, site 1) [21]: 12 µM
KD2 (heterogeneous ligand scheme, site 2) [21]: 16 µM
ka1 (heterogeneous ligand scheme, site 1) [21]: 310 M⁻¹ s⁻¹
ka2 (heterogeneous ligand scheme, site 2) [21]: 5700 M⁻¹ s⁻¹
kd1 (heterogeneous ligand scheme, site 1) [21]: 0.0037 s⁻¹
kd2 (heterogeneous ligand scheme, site 2) [21]: 0.091 s⁻¹
KD1 (heterogeneous ligand model, site 1) [16]: 340 nM
KD2 (heterogeneous ligand model, site 2) [16]: 0.3 µM
ka1 (heterogeneous ligand model, site 1) [16]: 12600 M⁻¹ s⁻¹
ka2 (heterogeneous ligand model, site 2) [16]: 134000 M⁻¹ s⁻¹
kd1 (heterogeneous ligand model, site 1) [16]: 0.0041 s⁻¹
kd2 (heterogeneous ligand model, site 2) [16]: 0.038 s⁻¹
KD1 (heterogeneous ligand model, site 1) [17]: 340 nM
KD2 (heterogeneous ligand model, site 2) [17]: 1.2 µM
ka1 (heterogeneous ligand model, site 1) [17]: 9600 M⁻¹ s⁻¹
ka2 (heterogeneous ligand model, site 2) [17]: 39000 M⁻¹ s⁻¹
kd1 (heterogeneous ligand model, site 1) [17]: 0.0032 s⁻¹
kd2 (heterogeneous ligand model, site 2) [17]: 0.0432 s⁻¹
stoichiometry N [22]: 1.9
Substance: semaglutide (peptide)
